Patent publication US20240166738A1 (Alector, published 2024)

Tests used:
[1] = molecular target: T1, GST-TMEM106B (truncated, comprising amino acids 122-210 of SEQ ID NO:1) (human, UniProt Q9NUM4 122-210); assay: pre-mix epitope binning, antibody immobilized on chip array
T1 construct: GST written first by the name only; also called truncated GST-TMEM106B fusion protein; GST-TMEM106B polypeptide fusion; not shown: GST fusion partner

human TMEM106B = human TMEM106B (human, UniProt Q9NUM4 2-274); assay: cell-based or functional assay; also: test concentration or dose not given here

| Binder | binding result [1] | % Protection from CPE (human TMEM106B) |
| --- | --- | --- |
| TM-56 (antibody, V domains shown, mouse hybridoma mAb) VH: QVHLQQSGAELAKPGASVKLSCKASGYTFTSYWMHWVKQRPGQGLEWIGYINPSSGYSKYNQRFKDKATLTADKSSTTAYMHLSSLTYADSAVYYCTREGGSISDWYFDVWGTGTTVTVSS VL: DIEMTQAAPSVPVTPGESVSISCRSSKSLLQNNGNTYLYWFLQRPGQPPQLLIYRMSNLASGVPDRFSGSGSGTAFTLRISRVEAEDVGVYYCMQHLEYPYTFGGGTKLEIK | no binding (tested: 55 nM antigen (2 ug/mL)) | 89.7% |
| TM-62 (antibody, V domains shown, mouse hybridoma mAb) VH: QVQLQQPGTELVRPGSSVKLSCKAAGYTFTRYWMHWVKQRPIQGLEWIGNIDPSDSETQYNPKFKDKATLTVDRSSSTAYMHLSSLTSEDSAVYYCARLTTLDYAMDYWGQGTSVTVSS VL: QIVLTQSPAIMSASPGEKVTISCSASSSVSYMYWYQQKAGSSPKPWIHRTSNLASGVPARFSGSGSGTSYSLTIRSMEAEDAATYYCQQYHSYPPTFGVGTKLELK | no binding (tested: 55 nM antigen (2 ug/mL)) | 84.2% |
| TM-49 (antibody, V domains shown, mouse hybridoma mAb) VH: QVQLQQPGAELVRPGSSVKLSCKASGYTFTRFWMHWVKQRPIQGLEWIGNIDPSDSQTHYNQKFKDKATLTVDKSSSTAYMQLSSLTSEDSAVYYCARLITVDYAMDYWGQGTSVTVSS VL: QIVLTQSPAIMSASPGEKVTISCSASSSVSYMYWYQQKPGSSPKPWIHRTSNLASGVPVRFSGSGSGTSYSLTISSMEAEDAATYYCQQYHSYPPTFGAGTKLELK | no binding (tested: 55 nM antigen (2 ug/mL)) | 49.6% |
| TM-31 (antibody, V domains shown, mouse hybridoma mAb) VH: QVQLQQSGAELAKPGASVKVSCKASGYTFISYWMNWVKQRPGQGLEWIGYINPTSGYTRYNQKFKDKATLTADKSSSTAYMQLSSLTYEDSAVYYCARSPPTVVLIGYFDYWGQGTTLTVSS VL: DIKMTQSPSSMYASLGERVTFTCKASQDINSYLSWFQQKPGKSPKTLIYRGNGLVDGVPSRFSGSGSGQDYSLTISSLEYEDMGIYYCLQYDEFPFTFASGTKLEIK | no binding (tested: 55 nM antigen (2 ug/mL)) | 7.7% |
| TM-66 (antibody, V domains shown, mouse hybridoma mAb) VH: EVMLVESGGALVEPGGSLKLSCAASGITFSNYAMSWIRQTPEKRLEWVATIGSVGSYTYYPDSVKGRFTISRDNARNTLYLQMSSLRSEDTAMYYCARQEGSSHFDYWGQGTTLTVSS VL: DVVVTQTPPSLPVSFGDQVSISCRSSQSLVNSYGKTFLSWYLHKPGQSPQLLIYGISNRFSGVPDRFSGSGSGTVFTLKISTIKPEDLGMYYCLQGTHPPLTFGAGTKLEMK | no binding (tested: 55 nM antigen (2 ug/mL)) | 5.9% |
| TM-27 (antibody, V domains shown, mouse hybridoma mAb) VH: QVQLQQSGAELVRPGTSVKVSCKASGYALTNYLIEWVKQRPGQGLEWIGVINPGSGSTKYNEKFKGKATLTADKSSSTAYMQLSSLTSEDSAVYFCARIIYDHDWYFDVWGTGTTVTVSS VL: QIVLTQSPAIMSASPGEKVTISCSASSSISYMYWYQQKPGSSPKPWIYRTSTLASGVPARFSGSGSGTSYSLTISSMEAEDAATYYCQQYHSYPRTFGGGTKLEIK | no binding (tested: 55 nM antigen (2 ug/mL)) | 5.2% |
| TM-85 (antibody, V domains shown, mouse hybridoma mAb) VH: QVQLQQPGAELVRAGTSVKLSCKASGYTFIGYWMHWVKQRPGRGLEWIGRIDPYSGDTRYNEKFKNKATLTVDKPSSTAYMQLSSLTSEDSAVYYCARYGLGHAMDYWGQGTSVTVSS VL: DIAMSQSQKFMSTSVGDRVSVTCKASQNVGTNVAWYQQKPGQSPKALIYSASYRYSGVPDRFTGSGSGTDFTLTISNVQSEDLAEYFCQQYNSYPLTFGAGTKLEMK | no binding (tested: 55 nM antigen (2 ug/mL)) | 5.2% |
| TM-75 (antibody, V domains shown, mouse hybridoma mAb) VH: EVQLQQSGPELVKPGASVKMSCKASGYTFTSYVMHWVKQKPGQGLEWIGYINPYNDGTKYNEKFKGKATLTSDKSSSTAYMELSSLTSEDSAVYYCARGGWFPYAMDYWGQGTTVTVSS VL: not shown | no binding (tested: 55 nM antigen (2 ug/mL)) | 5.1% |
| TM-81 (antibody, V domains shown, mouse hybridoma mAb) VH: QVQLQQSGAELVKPGASVKLSCKASGYTFTSYWMHWVKQRPGQGLEWIGNIDPSDSEIHYNQKFKDKATLTVDKSSSTAYIQLSSLTSEDSAVYYCARSPAGQILDYWGQGTTVTVSS VL: not shown | no binding (tested: 55 nM antigen (2 ug/mL)) | 4.6% |
| TM-6 (antibody, V domains shown, mouse hybridoma mAb) VH: QVQLQQSGAELVKPGASVKLSCKASGYTFTEYTIHWVKQRSGQGLEWIGWFYPGSTYIDYNEKFKDKATLTADKSSSTVYLELSRLTSEDSAVYFCARHEEDYSNWFPFWGQGTLVTVSA VL: DIQMSQSSSYLSVSLGGRVTITCKASDHINNWLAWYQQKPGNAPRLLISGATSLETGVPSRFSGSGSGKDYTLSITSLQTEDVATYYCQQYWSSPYTFGGGTKLEIK | no binding (tested: 55 nM antigen (2 ug/mL)) | 4.4% |
| TM-33 (antibody, V domains shown, mouse hybridoma mAb) VH: EFQLQQSGPELVKPGASVKISCKASGYSFTDYNMNWVKQSNGKSLEWIGVINPNYGTTSYNQKFKGKATLTVDQSSSTAYMQLNSLTSEDSAVYYCASSYWGQGTLVTVSA VL: DIVMTQSQKFMSTTVGDRVSITCKASQNVGTAVAWYQQKPGQSPKLLIYSASNRYTGVPDRFTGSGSGTDFTLTISNMQSEDLADYFCQQYSSYPYTFGGGTKLEIK | no binding (tested: 55 nM antigen (2 ug/mL)) | 4.4% |
| TM-2 (antibody, V domains shown, mouse hybridoma mAb) VH: HIQLVQSGPELKKPGETVKISCKASGYTFTEYPMHWVKQAPGKGFRWMGMIYTNTGEPTYAAEFKGRFAFSLETSASTGYLQINNLKNEDSATYFCVTAGYWGQGTLVTVSA VL: QIVLTQSPAILSASPGEKVTMTCRASSSVSYIHWFLQKPGSSPKPWIYATSNLASGVPFRFIGSGSGTSYSLTISGVEAEDSATYYCQQWSSNPSTFGAGTKLELK | no binding (tested: 55 nM antigen (2 ug/mL)) | 4.3% |
| TM-69 (antibody, V domains shown, mouse hybridoma mAb) VH: QVQLKESGPDLVQPSQTLSLTCTVSGFSFTSYGVHWVRQPPGKGLEWVGIMGWDDKKYYNSALKSRLSISRDTSKNQVFLKLSSLQTEDTAMYYCTREAGPYGMDYWGQGTSVTVSS VL: DVVMTQTPLSLPVSLGDQASISCRSSQSLVHSNGNTYLHWYLQKPGQSPKLLIYKVSNRFSGVPDRFSGSGSGTDFTLKISRVEAEDLGVYFCSQNTHVPLTFGAGTKLELK | no binding (tested: 55 nM antigen (2 ug/mL)) | 4.3% |
| TM-14 (antibody, V domains shown, mouse hybridoma mAb) VH: QVQLQQSGPELVRPGTSVKVSCKASGYAFTNYLIEWVKQRPGQGLEWIGVINPGGGNTDYSEKFKDKATLTADKSSNTAYIQLSSLTSEDSAVYFCARSPYSSYVGYAVDYWGQGTSVTVSS VL: DIQMTQSPSSLSASLGERVSLTCRASQDIGSNLNWLQQEPDGTIKRLIYATSSLDSGVPKRFSGSRSGSDYSLTISSLESEDFVVYYCLQYASSPRTFGGGTRLEIK | no binding (tested: 55 nM antigen (2 ug/mL)) | 4% |
| TM-65 (antibody, V domains shown, mouse hybridoma mAb) VH: QVQLQQPGAEFVKPGASVRLSCKTSGYTFTSSWMHWVKQRPGQGLEWIGEINPKNGGTNYNEKFKTKATLTVDKSSNTAYMQLSSLTSEDSAVYYCTIPTWFTYWGQGTLVTVSS VL: DIQMNQSPSSLSASLGDTITITCRASQNINIWLSWYQQKPGNVPKLLIYKASNLHTGVPSRFSGSGSGTGFTLTISSLQPEDIATYYCLQGQSYPYTFGGGTKLGIK | no binding (tested: 55 nM antigen (2 ug/mL)) | 4% |
| TM-8 (antibody, V domains shown, mouse hybridoma mAb) VH: QIQLVQSGPELKKPGETVKISCKASGYTFTDYPMHWVKQAPGKGFKWMGVIYTDTGEPKYAEVFKGRFAFSLETSASTAYLQINNLKNEDTATYFCVRRLAYWGQGTLVTVSA VL: DIKMTQSPSSMYASLGERVTITCKASQDINSYLSWFQQKPGKSPKTLIFRANRLVDGVPSRFSGSGSGQDYSLTISSLEYEDMGIYYCLQYDEFPLTFGAGTKLEMK | no binding (tested: 55 nM antigen (2 ug/mL)) | 3.8% |
| TM-52 (antibody, V domains shown, mouse hybridoma mAb) VH: QVQLQQPGAELVKPGASVKLSCKASGYTFTNYWMHWVKQRPGQGLDWIGNIDPSDSETHYNQKFKDKATLTVDKVSSTAYMQLSSLTSEDSAVYYCARRGYYGRSPFAYWGQGTLVTVSA VL: ENVLTQSPAIMSASPGEKVTMTCSASSSVSYMHWYQQKSNTSPKLWIYDTSKLASGVPGRFSGSGSGNSYSLTISSAEAEDVATYYCFQGSGYPLTFGAGTKLELK | no binding (tested: 55 nM antigen (2 ug/mL)) | 3.6% |
| TM-71 (antibody, V domains shown, mouse hybridoma mAb) VH: EVQLVESGGALVKPGGSLKLSCAASGFTFSNYAMSWVRQTPEKRLEWVATIGYGGSYSYYPDSVKGRFTISRDNAKNTLYLQMSSLRSEDTALYYCARQDSNYEGVWFAYWGQGTLVTVSS VL: DIVMTQAAPSVPVTPGESVSISCRSSKSLLHTNGNTYLFWFIQRPGQSPHLLIYRKSNLASGVPDRFSGSGSGTAFTLRISRVEAEDVGVYYCMQHLEYPFTFGSGTKLEIK | no binding (tested: 55 nM antigen (2 ug/mL)) | 3.2% |
